Data on 17 molecules can be found in US20210403579A1 (DELINIA, published 2021).

What is called Kd is the equilibrium constant for the complex coming apart. Low readings indicate tighter binding, high ones weaker binding. Usually koff stands for the rate constant with which the complex falls apart. Low readings indicate slow dissociation, high ones fast dissociation. Broadly, the kon is the rate constant with which the complex forms. A high value points to faster complex formation.

To fix the notation:
B1: Human ST2 IgG1 Antibody 99 (antibody, V domains shown)
VH: EVQLLESGGGLVQPGGSLRLSCAASGFTFSDYYMNWVRQAPGKGLEWVSTISGFGESTFYADSVKGRFTISRDNSKNTLYLQMNSLRAEDTAVYYCARLGAARAFDIWGQGTTVTVSS
VL: DIQMTQSPSSLSASVGDRVTITCRASQSIGSWMAWYQQKPGKAPKLLIYAASTLQSGVPSRFSGSGSGTDFTLTISSLQPEDFATYYCQQSYTTPITFGPGTKVDIKR
notes: IgG1; also called ST2 Antibody 99
B2: Human ST2 IgG1 Antibody 98 (antibody, V domains shown)
VH: EVQLLESGGGLVKPGGSLRLSCAASGFTFSSYWMSWVRQAPGKGLEWVSAISGTAINTYYADSVKGRFTISRDDSKNTLYLQMNSLKTEDTAVYYCARVRRDSSGGGAFDIWGQGTMVTVSS
VL: DIQMTQSPSSLSASVGDRVTITCRASQGISNNLNWYQQKPGKAPKLLIYAASSLQTGVPSRFSGSGSGTDFTLTISSLQPEDFATYYCQQSYSTPPTFGQGTKVEIKR
notes: IgG1; also called ST2 Antibody 98
B3: Human ST2 IgG1 Antibody 100 (antibody, V domains shown)
VH: EVQLLESGGGLVQPGGSLRLSCAASGFTFSNYAMAWVRQAPGKGLEWVSWISGSGSYIYYADSVKGRFTISRDNSKNTLYLQMNSLRAEDTAVYYCARRGSSWSNFDYWGQGTLVTVSS
VL: B2 VL with G28T, N31T, N32Y, A50D, S53N, Q55E, P96I
notes: IgG1; also called ST2 Antibody 100
B4: Human ST2 IgG1 Antibody 95 (antibody, V domains shown)
VH: QVQLVQSGAEVKKPGSSVKVSCKASGYTFTSYGISWVRQAPGQGLEWMGGIIPIFGTANYAQKFQGRVTITADESTSTAYMELSSLRSEDTAVYYCARVMARRDGYNFKGGWYFDLWGRGTLVTVSS
VL: DIVMTQSPLSLPVTPGEPASISCRSSQSLLHSNGYNYLDWYLQKPGQSPQLLIYAASSLQSGVPDRFSGSGSGTDFTLKISRVEAEDVGVYYCMQALETPPTFGQGTKLEIKR
notes: IgG1; also called ST2 Antibody 95
B5: Human ST2 IgG1 Antibody 96 (antibody, V domains shown)
VH: QVQLVQSGAEVKKPGSSVKVSCKASGFSFSTYGVAWVRQAPGQGLEWMGGFVPIIGSANYAQKFQGRVTITADESTSTAYMELSSLRSEDTAVYYCARDYGGNLDYWGQGTLVTVSS
VL: B4 VL with A96G, L97A, E98H, T99W, L109V
notes: IgG1; also called ST2 Antibody 96
B6: Human ST2 IgG1 Antibody 38 (antibody, V domains shown)
VH: QVQLVQSGAEVKKPGSSVKVSCKASGGTFSSYAISWVRQAPGQGLEWMGTIIPMFGIADYAQKFQGRVTITADESTSTAYMELSSLRSEDTAVYYCARSSRSSSWYNWYFDLWGRGTLVTVSS
VL: EIVMTQSPATLSVSPGERATLSCRASQSISSSYLAWYQQKPGQAPRLLIYGASTRATGIPARFSGSGSGTEFTLTISSLQSEDFAVYYCQQYYTTPWTFGQGTKVEIKR
notes: IgG1, kappa; also called ST2 Antibody 38
B7: Human ST2 IgG1 Antibody 35 (antibody, V domains shown)
VH: QVQLVQSGAEVKKPGASVKVSCKASAYTFTSYGISWLRQAPGQGLEWMGWINPNSGNTGYAHKFQGRVTMTRDTSTSTVYMELSSLRSEDTAVYYCARGGSGWPTWGQGTLVTVSS
VL: DIQMTQSPSSLSASVGDRVTITCQASQDISNYLNWYQQKPGKAPKLLIYGASSLQSGVPSRFSGSGSGTDFTLTISSLQPEDFATYYCQQANTFPFTFGPGTKVDIKR
notes: IgG1, kappa; also called ST2 Antibody 35
B8: Human ST2 IgG1 Antibody 39 (antibody, V domains shown)
VH: QVQLVQSGAEVKKPGSSVKVSCKASGYTFTSYYMQWVRQAPGQGLEWMGGIIPIFGTANYAQKFQGRVTITADESTSTAYMELSSLRSEDTAVYYCARARFGAVDYWGQGTLVTVSS
VL: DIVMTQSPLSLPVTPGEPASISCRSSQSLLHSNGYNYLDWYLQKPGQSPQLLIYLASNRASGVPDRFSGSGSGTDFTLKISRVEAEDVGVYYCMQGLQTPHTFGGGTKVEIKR
notes: IgG1, kappa; also called ST2 Antibody 39
B9: Human ST2 IgG1 Antibody 34 (antibody, V domains shown)
VH: QVQLVQSGAEVKKPGASVKVSCKASGQTFTDYAINWVRQAPGQGLEWMGWMNPNSGNTGYAQKFQGRVTMTRDTSTSTVYMELSSLRSEDTAVYYCARETLEQQLPFDYWGQGTLVTVSS
VL: B1 VL with G30S, M33L, S91Y, T93S, P95L, I96Y, P100Q, D105E
notes: IgG1, kappa; also called ST2 Antibody 34
B10: Human ST2 IgG1 Antibody 9 (antibody, V domains shown)
VH: EVQLLESGGGLVQPGGSLRLSCAASGFAFSSHWMHWVRQAPGKGLEWVATISSGSHSIHYADSVKGRFTISRDNSKNTLYLQMNSLRAEDTAVYYCAREAGTSYYYYGMDVWGKGTTVTVSS
VL: B2 VL with R24Q, G28D, S30R, N32Y, A50K, Q55E, T56S, Q100G
notes: IgG1, kappa; also called ST2 Antibody 9
B11: Human ST2 IgG1 Antibody 19 (antibody, V domains shown)
VH: EVQLLESGGGLVQPGGSLRLSCAASGFSFSHAWMSWVRQAPGKGLEWVSVIHSGGSTFYADSVKGRFTISRDNSKNTLYLQMNSLRAEDTAVYYCARIGKGGGFDYWGQGTLVTVSS
VL: B2 VL with G28D, S30G, N31S, N32W, N34A, T56S
notes: IgG1, kappa; also called ST2 Antibody 19
B12: Human ST2 IgG1 Antibody 30 (antibody, V domains shown)
VH: QVQLVQSGAEVKKPGSSVKVSCKASGYTFTTYGITWVRQAPGQGLEWMGGIIPIFGTANYAQKFQGRVTITADESTSTAYMELSSLRSEDTAVYYCAKLSGSSGSWDYYYYYGMDVWGQGTLVTVSS
VL: B4 VL with S58N, E98Q, P101I, G106S, K108R
notes: IgG1, kappa; also called ST2 Antibody 30
B13: Human ST2 IgG1 Antibody 16 (antibody, V domains shown)
VH: QVQLVQSGAEVKKPGASVKVSCKASGYTFTSHYMHWVRQAPGQGLEWMGIINPSGGSTSYAQKFQGRVTMTRDTSTSTVYMELSSLRSEDTAVYYCARAGIGYLAAHDLYYYYGMDVWGRGTLVTVSS
VL: EIVMTQSPATLSVSPGERATLSCRASQSVSSNFAWYQQKPGQAPRLLIYGASTRATGIPARFSGSGSGTEFTLTISSLQSEDFAVYYCQQYYSTPYTFGQGTKVEIKR
notes: IgG1, kappa; also called ST2 Antibody 16
B14: Human ST2 IgG1 Antibody 25 (antibody, V domains shown)
VH: QVQLVQSGAEVKKPGSSVKVSCKASGGTFSNYAISWVRQAPGQGLEWMGWISAYNGNTNYAQKFQGRVTMTRDTSTSTVYMELSSLRSEDTAVYYCARSTNALDYWGQGTLVTVSS
VL: DIQMTQSPSSLSASVGDRVTITCRASQGIRSNLDWYQQKPGKAPKLLISIVSNLGSGVPSRFSGSGSGTDFTLTISSLQPEDFATYYCLQHNSNPPTFGGGTKVEIKR
notes: IgG1, kappa; also called ST2 Antibody 25
B15: Human ST2 IgG1 Antibody 20 (antibody, V domains shown)
VH: EVQLLESGAEVKKPGSSVKVSCKASGGTFSSYAISWVRQAPGQGLEWMGGIIPIFGTANYAQKFQGRVTITADESTSTAYMELSSLRSEDTAVYYCASGFYSNDLYYYYYMDVWGKGTTVTVSS
VL: DIQMTQSPSSLSASVGDRVTITCRASQSISSWLAWYQQKPGKAPKLLIYDASNLKTGVPSRFSGSGSGTDFTLTISSLQPEDFATYYCQQTYAIPLTFGGGTKVEIKR
notes: IgG1, kappa; also called ST2 Antibody 20
B16: Human ST2 IgG1 Antibody 21 (antibody, V domains shown)
VH: QVQLVQSGAEVKKPGASVKVSCKASGYTFSNHYMHWVRQAPGQGLEWMGWVNPTSGNTGYAQKFQGRVTMTRDTSTSTVYMELSSLRSEDTAVYYCARDLGVTYFDLWGRGTLVTVSS
VL: B15 VL with S28G, D50E, N53H, K55E, Q89L, T91D, A93N, I94Y
notes: IgG1, kappa; also called ST2 Antibody 21
B17: Human ST2 IgG1 Antibody 29 (antibody, V domains shown)
VH: QVQLVQSGAEVKKPGASVKVSCKASGGTFTGYFIHWVRQAPGQGLEWMGWMNPNSGNTGYAQKFQGRVTMTRDTSTSTVYMELSSLRSEDTAMYYCAREGQGVVPVDYWGQGTLVTVSS
VL: B15 VL with S52T, K55E, Q89L, T91D, A93N, I94Y, G100Q, G101S
notes: IgG1, kappa; also called ST2 Antibody 29

Substitutions are numbered along the chain they refer to.

The target of the first assay is T1, Human ST2 (human, UniProt Q01638 19-328, limits assumed).
T1 construct: also called human ST2 protein; Interleukin 1 receptor-like 1
T1 sequence (looked up): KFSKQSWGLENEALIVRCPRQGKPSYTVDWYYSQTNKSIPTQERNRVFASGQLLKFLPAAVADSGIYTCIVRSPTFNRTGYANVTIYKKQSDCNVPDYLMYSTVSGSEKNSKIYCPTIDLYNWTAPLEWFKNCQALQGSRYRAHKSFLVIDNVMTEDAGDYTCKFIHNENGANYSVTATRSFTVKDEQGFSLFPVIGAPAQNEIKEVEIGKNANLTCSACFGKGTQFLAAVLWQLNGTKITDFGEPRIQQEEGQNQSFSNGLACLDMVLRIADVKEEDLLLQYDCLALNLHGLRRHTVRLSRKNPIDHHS
The experiment in a line: SPR (Carterra), antibody immobilized, ST2 analyte. How it is done: (§1) Binding of the reformatted human ST2 antibodies to the human and mouse ST2 proteins was evaluated by surface plasmon resonance (SPR), using a high throughput antibody screening and characterization platform from Carterra (Salt Lake City, Utah).
B1 yielded a Kd of 192 nM, a koff of 0.089 s⁻¹ and a kon of 460000 M⁻¹ s⁻¹.

B2 had a Kd of 95 nM, a koff of 0.025 s⁻¹ and a kon of 270000 M⁻¹ s⁻¹.

Turning to B3, the Kd turned out to be 342 nM, the koff was 0.074 s⁻¹ and the kon stood at 220000 M⁻¹ s⁻¹.

Molecule B4 showed a Kd of 446 nM, a koff of 0.0086 s⁻¹ and an association rate constant (kon) of 19000 M⁻¹ s⁻¹.

As for B5, binding was put at a Kd of 337 nM, the koff stood at 0.097 s⁻¹ and the kon was determined as 290000 M⁻¹ s⁻¹.

Another assay addresses T2, Mouse ST2 (mouse, UniProt P14719 27-332, limits assumed).
T2 construct: also called mouse ST2 protein
T2 sequence (looked up): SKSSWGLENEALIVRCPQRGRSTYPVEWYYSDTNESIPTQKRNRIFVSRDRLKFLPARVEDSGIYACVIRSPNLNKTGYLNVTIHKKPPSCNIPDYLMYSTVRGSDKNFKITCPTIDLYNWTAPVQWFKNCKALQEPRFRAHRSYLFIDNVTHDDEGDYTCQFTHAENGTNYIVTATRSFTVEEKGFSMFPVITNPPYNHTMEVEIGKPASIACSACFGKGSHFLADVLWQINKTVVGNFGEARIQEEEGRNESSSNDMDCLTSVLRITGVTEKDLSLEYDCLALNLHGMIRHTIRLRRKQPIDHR
The experiment in a line: SPR (Carterra), antibody immobilized, ST2 analyte, 1:1. How it is done:
as §1
Turning to B6, binding was characterised by a dissociation constant (Kd) of 529 nM, the koff is 0.09 s⁻¹ and the kon came to 170000 M⁻¹ s⁻¹.

For the molecule B7, the affinity, expressed as Kd, was 107 nM; the koff turned out to be 0.018 s⁻¹; the kon stood at 170000 M⁻¹ s⁻¹.

For the molecule B8, the Kd stood at 3400 nM, the koff was determined as 0.14 s⁻¹ and the kon is 42000 M⁻¹ s⁻¹.

In turn, B9 gave a Kd of 126 nM, a koff of 0.0019 s⁻¹ and a kon of 15000 M⁻¹ s⁻¹.

B10: the Kd is 351 nM, the dissociation rate constant (koff) worked out at 0.032 s⁻¹ and the kon amounted to 91000 M⁻¹ s⁻¹.

With B11, binding was put at a Kd of 311 nM, the koff is 0.11 s⁻¹ and the kon is 370000 M⁻¹ s⁻¹.

In turn, B12 came in with a dissociation constant (Kd) of 2700 nM, a koff of 0.13 s⁻¹ and a kon of 48000 M⁻¹ s⁻¹.

B13 registered a Kd of 315 nM, a koff of 0.1 s⁻¹ and a kon of 320000 M⁻¹ s⁻¹.

For B14, the Kd is 322 nM, the koff turned out to be 0.064 s⁻¹ and the kon was 200000 M⁻¹ s⁻¹.

B15 yielded a Kd of 2200 nM, a koff of 0.17 s⁻¹ and a kon of 77000 M⁻¹ s⁻¹.

In turn, B16 had a Kd of 999 nM, a koff of 0.0085 s⁻¹ and a kon of 8500 M⁻¹ s⁻¹.

For the molecule B17, the Kd came out at 751 nM, the off-rate (koff) stood at 0.0045 s⁻¹ and the kon came to 5900 M⁻¹ s⁻¹.
